Reference: patent US20260209345A1 (IOMX THERAPEUTICS, published 2026)
Positions count from the first letter of the chain named. Values belong to the molecule of their own block, whether it stands above or below them.

Experiments:
recombinant LILRB2 ECD [1] = molecular target: T1, recombinant LILRB2 ECD (human, UniProt Q8N423 22-460); experiment: competition ELISA (Example 3): biotinylated LILRB2 ECD with avidin-HRP pre-incubated with antibody 0.1-100 nM, residual binding to coated B2M-HLA-G-mouse IgG2a-Fc; blocked ligand HLA-G
T1 construct: also called biotinylated LILRB2 ECD
T1 sequence (Q8N423 22-460 limits assumed): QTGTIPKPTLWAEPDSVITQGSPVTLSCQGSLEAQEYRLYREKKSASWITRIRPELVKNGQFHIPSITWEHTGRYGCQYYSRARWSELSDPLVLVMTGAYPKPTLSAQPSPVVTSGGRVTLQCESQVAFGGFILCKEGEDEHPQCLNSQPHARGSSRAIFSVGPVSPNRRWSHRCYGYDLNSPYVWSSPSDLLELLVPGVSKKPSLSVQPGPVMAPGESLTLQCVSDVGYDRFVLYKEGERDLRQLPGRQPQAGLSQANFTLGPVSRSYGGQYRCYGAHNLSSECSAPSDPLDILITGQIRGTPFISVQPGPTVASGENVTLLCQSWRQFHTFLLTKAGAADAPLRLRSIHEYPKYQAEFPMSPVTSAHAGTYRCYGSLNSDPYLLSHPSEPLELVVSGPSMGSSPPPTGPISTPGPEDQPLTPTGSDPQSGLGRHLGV

recombinant LILRB2 ECD [2] = molecular target: T1, recombinant LILRB2 ECD; experiment: ELISA, LILRB2 ECD binding to HLA-G-Fc
Description: (§1) HLA-G inhibition was tested by ELISA. 384-well Maxisorp plates were coated with 2 ug/mL B2M-HLA-G fused to a mouse IgG2a-Fc and the plates were blocked with 2% (w/v) BSA in PBST. […] 15 ul of the antibody dilution series (300 nM to 0.3 nM) were mixed with 30 μL of the pre-mixed LILRB/Avidin-HRP solution (final antibody concentration 100 nM to 0.1 nM) and incubated for 1 h at room temperature. After three wash cycles with PBST, 20 μL of the antibody/LILRB/Avidin-HRP solution was transferred to the plate with immobilized HLA-G and incubated for 15 min at room temperature. After three wash cycles with PBST, residual LILRB binding to HLA-G was detected by developing the ELISA with TMB substrate.

recombinant LILRB1 ECD [3] = molecular target: T2, recombinant LILRB1 ECD (human, UniProt Q8NHL6 24-461); experiment: ELISA, LILRB1 ECD binding to HLA-G-Fc
T2 construct: also called biotinylated LILRB1 ECD
T2 sequence (Q8NHL6 24-461 limits assumed): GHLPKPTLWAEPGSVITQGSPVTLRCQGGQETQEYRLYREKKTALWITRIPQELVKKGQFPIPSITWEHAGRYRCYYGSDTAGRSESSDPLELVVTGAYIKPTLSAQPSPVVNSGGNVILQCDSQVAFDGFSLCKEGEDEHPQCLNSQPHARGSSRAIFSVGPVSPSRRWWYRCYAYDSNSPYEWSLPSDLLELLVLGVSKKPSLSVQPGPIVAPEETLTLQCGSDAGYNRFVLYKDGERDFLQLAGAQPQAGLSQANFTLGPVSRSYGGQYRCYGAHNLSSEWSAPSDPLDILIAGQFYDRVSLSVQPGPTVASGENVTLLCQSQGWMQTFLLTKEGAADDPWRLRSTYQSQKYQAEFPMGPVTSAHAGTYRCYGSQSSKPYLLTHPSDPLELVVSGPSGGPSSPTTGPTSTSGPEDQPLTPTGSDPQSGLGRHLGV
Description: as §1

recombinant LILRA3 = molecular target: T3, recombinant LILRA3 (human, UniProt Q8N6C8 24-439); experiment: BLI, IgG on AHC sensor, ECD in solution
T3 construct: whole entry named; also called LILRA3 ECD; LILA3
T3 sequence (Q8N6C8 24-439 limits assumed): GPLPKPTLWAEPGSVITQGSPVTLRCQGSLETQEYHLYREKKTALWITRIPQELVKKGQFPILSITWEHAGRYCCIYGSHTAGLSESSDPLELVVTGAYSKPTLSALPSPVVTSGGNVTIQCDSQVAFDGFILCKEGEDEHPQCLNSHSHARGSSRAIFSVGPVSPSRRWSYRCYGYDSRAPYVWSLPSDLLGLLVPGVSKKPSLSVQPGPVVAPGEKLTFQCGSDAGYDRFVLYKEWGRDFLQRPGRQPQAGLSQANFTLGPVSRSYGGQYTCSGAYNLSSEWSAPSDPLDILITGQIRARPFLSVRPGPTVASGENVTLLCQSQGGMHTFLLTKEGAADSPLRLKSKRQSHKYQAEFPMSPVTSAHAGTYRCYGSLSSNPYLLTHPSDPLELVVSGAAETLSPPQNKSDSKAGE
Description: (§2) Briefly, IgGs were captured on anti-human capture (AHC) biosensors (Sartorius). […] Subsequently, the sensors were dipped into 1× Kinetics Buffer to measure the dissociation over 420 s. All sensorgrams were double referenced against 1× Kinetics Buffer and unloaded […] sensors to subtract sensor drifts and potential reference binding of the analytes. The affinities were determined by applying a 1:1 binding model.

recombinant LILRB2 ECD [4] = molecular target: T1, recombinant LILRB2 ECD; experiment: BLI, IgG on AHC sensor, ECD in solution
Description: as §2

recombinant LILRB1 ECD [5] = molecular target: T2, recombinant LILRB1 ECD; experiment: BLI, IgG on AHC sensor, ECD in solution
Description: as §2

recombinant LILRA1 ECD = molecular target: T4, recombinant LILRA1 ECD (human, UniProt O75019 17-461); experiment: BLI, IgG on AHC sensor, ECD in solution
T4 construct: whole canonical entry named; also called LILA1
T4 sequence (O75019 17-461 limits assumed): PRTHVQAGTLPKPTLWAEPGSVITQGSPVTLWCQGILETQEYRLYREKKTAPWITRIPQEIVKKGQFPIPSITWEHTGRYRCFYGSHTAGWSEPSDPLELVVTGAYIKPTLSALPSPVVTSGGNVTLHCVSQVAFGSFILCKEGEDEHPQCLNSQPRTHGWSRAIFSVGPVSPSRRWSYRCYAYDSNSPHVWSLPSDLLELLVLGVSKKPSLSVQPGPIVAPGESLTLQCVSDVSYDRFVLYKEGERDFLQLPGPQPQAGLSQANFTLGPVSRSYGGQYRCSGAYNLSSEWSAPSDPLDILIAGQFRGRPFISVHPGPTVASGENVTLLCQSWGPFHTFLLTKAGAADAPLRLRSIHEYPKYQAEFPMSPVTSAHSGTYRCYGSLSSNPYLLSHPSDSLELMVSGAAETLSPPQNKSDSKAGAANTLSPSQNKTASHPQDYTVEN
Description: as §2

Molecule: Ref065 [IO-108, LILRB2 specific] (antibody)
- IC50 (read off the curve) (recombinant LILRB2 ECD [1]): 3 nM

B1: A-003 (antibody, V domains shown)
VH: QVQLVQSGAEVKKPGSSVKVSCKASGGTFSSYAISWVRQAPGQGLEWMGGIIPIFGTANYAQKFQGRVTITADESTSTAYMELSSLRSEDTAVYYCAKGPPVGSSSWYTDWYFDLWGRGTLVTVSS
VL: SYELTQPPSVSVSPGQTASITCSGDKLGDKYASWYQQKPGQSPVLVIYQDSKRPSGIPERFSGSNSGNTATLTISGTQAEDEADYYCLSYGAHSHGVVFGGGTKLTVL
notes: tested as IgG; also called parental antibody A-003
- IC50 (recombinant LILRB2 ECD [2]): 65.8 nM
- IC50 (recombinant LILRB1 ECD [3]): 16.5 nM
- Kd (recombinant LILRA3): 519 nM
- Kd (recombinant LILRB2 ECD [4]): 73.1 nM
- Kd (recombinant LILRB1 ECD [5]): 99.4 nM
- Kd (recombinant LILRA1 ECD): 342 nM

B2: A-047 (antibody, V domains shown)
VH: B1 VH with G27Y, S31K, Y32S, I34M, I52V, I54K, G56H, A58S, N59V
VL: SYELTQPPSVSVSPGQTASITCSGDKLGDKYASWYQQKPGQSPVLVIYQDSKRPSGIPERFSGSNSGNTATLTISGTQAEDEADYYCSLYGAGHTVVFGGGTKLTVL
notes: tested as IgG
- IC50 (recombinant LILRB2 ECD [2]): 4.6 nM
- IC50 (recombinant LILRB1 ECD [3]): 1.9 nM
- Kd (recombinant LILRA3): 318 nM
- Kd (recombinant LILRB2 ECD [4]): 1.7 nM
- Kd (recombinant LILRB1 ECD [5]): 2.6 nM
- Kd (recombinant LILRA1 ECD): 128 nM

B5: A-040 (antibody, V domains shown)
VH: B1 VH
VL: B2 VL with A92P, G93A, V96G
notes: tested as IgG
- IC50 (recombinant LILRB2 ECD [2]): 7 nM
- IC50 (recombinant LILRB1 ECD [3]): 2.1 nM
- Kd (recombinant LILRA3): 345 nM
- Kd (recombinant LILRB2 ECD [4]): 0.3 nM
- Kd (recombinant LILRB1 ECD [5]): 6.6 nM
- Kd (recombinant LILRA1 ECD): 51.6 nM

B8: A-032 (antibody, V domains shown)
VH: B1 VH with S30Q, I34F, I52V, I54Q, F55Y, G56S, N59V
VL: B1 VL
notes: tested as IgG
- IC50 (recombinant LILRB2 ECD [2]): 7.6 nM
- IC50 (recombinant LILRB1 ECD [3]): 10.5 nM
- Kd (recombinant LILRA3): 253 nM
- Kd (recombinant LILRB2 ECD [4]): 2.5 nM
- Kd (recombinant LILRB1 ECD [5]): 2.2 nM
- Kd (recombinant LILRA1 ECD): 79.5 nM

B9: A-023 (antibody, V domains shown)
VH: B1 VH with G27Y, S30Q, S31Q, I34M, M48I, I54Q, G56S, A58S, N59V
VL: B1 VL
notes: tested as IgG
- IC50 (recombinant LILRB2 ECD [2]): 6.8 nM
- IC50 (recombinant LILRB1 ECD [3]): 7.5 nM
- Kd (recombinant LILRA3): 230 nM
- Kd (recombinant LILRB2 ECD [4]): 4.3 nM
- Kd (recombinant LILRB1 ECD [5]): 3.1 nM
- Kd (recombinant LILRA1 ECD): 82.4 nM

Now from value to molecule:

- IC50 (recombinant LILRB2 ECD [2]): 3.4 nM
- IC50 (recombinant LILRB1 ECD [3]): 2.2 nM
- Kd (recombinant LILRA3): 448 nM
- Kd (recombinant LILRB2 ECD [4]): 4.8 nM
- Kd (recombinant LILRB1 ECD [5]): 6.7 nM
- Kd (recombinant LILRA1 ECD): 209 nM
B3: A-038 (antibody, V domains shown)
VH: B1 VH
VL: B2 VL
notes: tested as IgG

- IC50 (recombinant LILRB2 ECD [2]): 4.4 nM
- IC50 (recombinant LILRB1 ECD [3]): 1.5 nM
- Kd (recombinant LILRA3): 465 nM
- Kd (recombinant LILRB2 ECD [4]): 5.8 nM
- Kd (recombinant LILRB1 ECD [5]): 17.5 nM
- Kd (recombinant LILRA1 ECD): 242 nM
B4: A-041 (antibody, V domains shown)
VH: B1 VH
VL: B2 VL with L89S, A92S, H94L
notes: tested as IgG

- IC50 (recombinant LILRB2 ECD [2]): 4.4 nM
- IC50 (recombinant LILRB1 ECD [3]): 6.7 nM
- Kd (recombinant LILRA3): 124 nM
- Kd (recombinant LILRB2 ECD [4]): 3.2 nM
- Kd (recombinant LILRB1 ECD [5]): 3.2 nM
- Kd (recombinant LILRA1 ECD): 63.8 nM
B6: A-030 (antibody, V domains shown)
VH: B1 VH with T28S, S30Q, I34F, I52V, F55Y, G56Y, N59T
VL: B1 VL
notes: tested as IgG

- IC50 (recombinant LILRB2 ECD [2]): 5.6 nM
- IC50 (recombinant LILRB1 ECD [3]): 7 nM
- Kd (recombinant LILRA3): 124 nM
- Kd (recombinant LILRB2 ECD [4]): 1.9 nM
- Kd (recombinant LILRB1 ECD [5]): 0.5 nM
- Kd (recombinant LILRA1 ECD): 33.9 nM
B7: A-027 (antibody, V domains shown)
VH: B1 VH with T28S, S30T, S31G, I52L, I54S, G56Y, N59V
VL: B1 VL
notes: tested as IgG

- IC50 (recombinant LILRB2 ECD [2]): 3.3 nM
- IC50 (recombinant LILRB1 ECD [3]): 3.9 nM
- Kd (recombinant LILRA3): 64.8 nM
- Kd (recombinant LILRB2 ECD [4]): 3.6 nM
- Kd (recombinant LILRB1 ECD [5]): 1.2 nM
- Kd (recombinant LILRA1 ECD): 31.8 nM
B10: A-024 (antibody, V domains shown)
VH: B1 VH with G27Y, S30T, S31G, Y32S, I34M, I52L, A58S, N59V
VL: B1 VL
notes: tested as IgG
